Results published in patent US6051217, “Therapeutic uses of interleukin-3 (IL-3) multiple mutation polypeptides” (G. D. Searle & Co., dated 2000).
Numbering of substitutions follows the chain as printed. Values belong to the binder of their own block, whether it stands above or below them.

Molecular target: T1, hIL-3 receptor (human, UniProt P26951)
T1 sequence: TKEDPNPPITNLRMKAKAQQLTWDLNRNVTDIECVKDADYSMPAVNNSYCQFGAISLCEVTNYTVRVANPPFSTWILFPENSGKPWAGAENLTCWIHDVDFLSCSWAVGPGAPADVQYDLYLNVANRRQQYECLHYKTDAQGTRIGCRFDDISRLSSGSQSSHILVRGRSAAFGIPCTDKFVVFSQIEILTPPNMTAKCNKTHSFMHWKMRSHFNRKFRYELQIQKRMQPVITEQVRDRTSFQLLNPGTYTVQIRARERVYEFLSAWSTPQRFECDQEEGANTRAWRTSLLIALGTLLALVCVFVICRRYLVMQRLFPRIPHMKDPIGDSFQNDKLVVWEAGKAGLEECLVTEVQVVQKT
Experiment: cell-based or functional assay

- Relative Biological Activity (AML 193 proliferation): 13 EC50 (1-133)hIL-3 / EC50 mutant
B1: pMON13364 polypeptide (ligand)
chain: NCSIMIDEIIHHLKRPPNPLLDPNNLNSEDMDILMERNLRTPNLLAFVRAVKHLENASAIESILKNLLPCLPLATAAPTRHPIHIKDGDWNEFRRKLTFYLKTLENAQAQQ

- Relative Biological Activity (AML 193 proliferation): 14 EC50 (1-133)hIL-3 / EC50 mutant
B2: pMON13375 polypeptide (ligand)
chain: MANCSIMIDEIIHHLKRPPAPLLDPNNLNAEDVDILMERNLRLPNLESFVRAVKNLENASGIEAILRNLQPCLPSATAAPSRHPIIIKAGDWQEFREKLTFYLVTLE

- Relative Biological Activity (AML 193 proliferation): 1.3 EC50 (1-133)hIL-3 / EC50 mutant
B3: pMON13404 polypeptide (ligand)
chain: B2 chain with T100Q

- Relative Biological Activity (AML 193 proliferation): 0.4 EC50 (1-133)hIL-3 / EC50 mutant
B4: pMON13376 polypeptide (ligand)
chain: B2 chain with A2D, I11A, T100Q

- Relative Biological Activity (AML 193 proliferation): 32 EC50 (1-133)hIL-3 / EC50 mutant
B5: pMON13285 polypeptide (ligand)
chain: MANCSNMIDEIITHLKQPPLPLLDFNNLNDEDMSILMDNNLRRPNLEAFNRAVKSLQNASAIESILKNLLPCLPLATAAPTRHPIHIKDGDWNEFRRKLTFYLKTLENAQAQQ

- Relative Biological Activity (AML 193 proliferation): 8 EC50 (1-133)hIL-3 / EC50 mutant
B6: pMON13286 polypeptide (ligand)
chain: B5 chain with D38E

- Relative Biological Activity (AML 193 proliferation): 8 EC50 (1-133)hIL-3 / EC50 mutant
B7: pMON13325 polypeptide (ligand)
chain: B5 chain with D38E, K104W

- Relative Biological Activity (AML 193 proliferation): 10 EC50 (1-133)hIL-3 / EC50 mutant
B8: pMON13329 polypeptide (ligand)
chain: B5 chain with D38E, H86I, K88R, K104W

- Relative Biological Activity (AML 193 proliferation): 19 EC50 (1-133)hIL-3 / EC50 mutant
B9: pMON13330 polypeptide (ligand)
chain: B5 chain with H83R, H86I, K88R, K104W

- Relative Biological Activity (AML 193 proliferation): 25 EC50 (1-133)hIL-3 / EC50 mutant
B10: pMON13326 polypeptide (ligand)
chain: B5 chain with K104W

- Relative Biological Activity (AML 193 proliferation): 4 EC50 (1-133)hIL-3 / EC50 mutant
B11: pMON13312 polypeptide (ligand)
chain: MANCSIMIDEIIHHLKRPPNPLLDPNNLNSEDMDILMERNLRTPNLLAFVRAVKHLENASGIEAILRNLVPCLPSATAAPSRHPITIKAGDWQEFREKLTFYLVTLEQAQEQQ

- Relative Biological Activity (AML 193 proliferation): 30 EC50 (1-133)hIL-3 / EC50 mutant
B12: pMON13391 polypeptide (ligand)
chain: B11 chain with N20A, L22S, S30A, M33V, T43L, L47E, A48S, H55N, V70Q, T86I

- Relative Biological Activity (AML 193 proliferation): 1.2 EC50 (1-133)hIL-3 / EC50 mutant
B13: pMON13411 polypeptide (ligand)
chain: B11 chain with V70Q, T86I, E97L, T100Q, V104S

- Relative Biological Activity (AML 193 proliferation): 0.03 EC50 (1-133)hIL-3 / EC50 mutant
B14: pMON13403 polypeptide (ligand)
chain: B11 chain with E38D, R39S, V50P, R51H, V53S, H55Q, V70Q, T86I

- Relative Biological Activity (AML 193 proliferation): 0.25 EC50 (1-133)hIL-3 / EC50 mutant
B15: pMON13384 polypeptide (ligand)
chain: B11 chain with N20A, S30A, M33V, T43L, L47E, A48S, H55N, V70Q, T86I, T100Q

- Relative Biological Activity (AML 193 proliferation): 20 EC50 (1-133)hIL-3 / EC50 mutant
B16: pMON13402 polypeptide (ligand)
chain: B11 chain with I11L, R17I, L22S, P25S, N26A, M33V, D34S, V70Q, T86I

- Relative Biological Activity (AML 193 proliferation): 0.09 EC50 (1-133)hIL-3 / EC50 mutant
B17: pMON13400 polypeptide (ligand)
chain: B11 chain with I8P, I11A, R17I, L22S, P25S, N26A, M33V, D34S, V70Q, T86I

- Relative Biological Activity (AML 193 proliferation): 16 EC50 (1-133)hIL-3 / EC50 mutant
B18: pMON13407 polypeptide (ligand)
chain: B11 chain with M33V, V70Q, T86I

- Relative Biological Activity (AML 193 proliferation): 12 EC50 (1-133)hIL-3 / EC50 mutant
B19: pMON13373 polypeptide (ligand)
chain: B11 chain with N20A, S30D, D34S, E38D, T43L, L47E, A48S, H55N, V70Q, T86I

- Relative Biological Activity (AML 193 proliferation): 0.05 EC50 (1-133)hIL-3 / EC50 mutant
B20: pMON13380 polypeptide (ligand)
chain: B11 chain with I11A, R17V, N20A, P25S, T43L, H55N, V70Q, T86I, T100Q

- Relative Biological Activity (AML 193 proliferation): 5 EC50 (1-133)hIL-3 / EC50 mutant
B21: pMON13406 polypeptide (ligand)
chain: B11 chain with M7A, V70Q, T86I

- Relative Biological Activity (AML 193 proliferation): 6 EC50 (1-133)hIL-3 / EC50 mutant
B22: pMON13374 polypeptide (ligand)
chain: B11 chain with N20A, D34S, E38D, T43L, L47E, A48S, H55N, V70Q, T86I

- Relative Biological Activity (AML 193 proliferation): 8 EC50 (1-133)hIL-3 / EC50 mutant
B23: pMON13313 polypeptide (ligand)
chain: B11 chain with N20A, S30A, M33V, T43L, L47E, A48S, H55N, T105S, Q108H

- Relative Biological Activity (AML 193 proliferation): 15 EC50 (1-133)hIL-3 / EC50 mutant
B24: pMON13409 polypeptide (ligand)
chain: B11 chain with M37L, V70Q, T86I

- Relative Biological Activity (AML 193 proliferation): 1.6 EC50 (1-133)hIL-3 / EC50 mutant
B25: pMON13368 polypeptide (ligand)
chain: B11 chain with I11A, R17V, N20A, P25S, T43L, H55N, V70Q, T86I

- Relative Biological Activity (AML 193 proliferation): 10 EC50 (1-133)hIL-3 / EC50 mutant
B26: pMON13381 polypeptide (ligand)
chain: B11 chain with N20A, S30A, M33V, T43L, L47E, A48S, H55N, V70W, T86I

- Relative Biological Activity (AML 193 proliferation): 0.4 EC50 (1-133)hIL-3 / EC50 mutant
B27: pMON13410 polypeptide (ligand)
chain: B11 chain with M37D, V70Q, T86I

- Relative Biological Activity (AML 193 proliferation): 17 EC50 (1-133)hIL-3 / EC50 mutant
B28: pMON13392 polypeptide (ligand)
chain: B11 chain with N20A, S30D, M33V, T43L, L47E, A48S, H55N, V70Q, T86I

- Relative Biological Activity (AML 193 proliferation): 7 EC50 (1-133)hIL-3 / EC50 mutant
B29: pMON13408 polypeptide (ligand)
chain: B11 chain with M37I, V70Q, T86I

- Relative Biological Activity (AML 193 proliferation): 6 EC50 (1-133)hIL-3 / EC50 mutant
B30: pMON13370 polypeptide (ligand)
chain: B11 chain with N20A, S30A, D34S, E38D, T43L, L47E, A48S, H55N, V70Q, T86I

- Relative Biological Activity (AML 193 proliferation): 32 EC50 (1-133)hIL-3 / EC50 mutant
B31: pMON13387 polypeptide (ligand)
chain: B11 chain with N20A, S30A, M33V, E38D, T43L, L47E, A48S, H55N, V70Q, T86I

- Relative Biological Activity (AML 193 proliferation): 10 EC50 (1-133)hIL-3 / EC50 mutant
B32: pMON13389 polypeptide (ligand)
chain: B11 chain with N20A, S30D, T43L, L47E, A48S, H55N, V70Q, T86I

- Relative Biological Activity (AML 193 proliferation): 9 EC50 (1-133)hIL-3 / EC50 mutant
B33: pMON13405 polypeptide (ligand)
chain: B11 chain with M7A, M33V, V70Q, T86I

- Relative Biological Activity (AML 193 proliferation): 7 EC50 (1-133)hIL-3 / EC50 mutant
B34: pMON13475 polypeptide (ligand)
chain: MANCSIMIDEAIHHLKRPPAPLLDPNNLNDEDVSILMDRNLRLPNLESFVRAVKNLENASGIEAILRNLQPCLPSATAAPSRHPIIIKAGDWQEFREKLTFYLVTLEQAQEQQ

- Relative Biological Activity (AML 193 proliferation): 16 EC50 (1-133)hIL-3 / EC50 mutant
B35: pMON13397 polypeptide (ligand)
chain: B34 chain with A11I, D30A, S34D, D38E, Q70W, K88R, A89M

- Relative Biological Activity (AML 193 proliferation): 10 EC50 (1-133)hIL-3 / EC50 mutant
B36: pMON13369 polypeptide (ligand)
chain: B34 chain with A11I

- Relative Biological Activity (AML 193 proliferation): 20 EC50 (1-133)hIL-3 / EC50 mutant
B37: pMON13396 polypeptide (ligand)
chain: B34 chain with A11I, D30A, S34D, D38E, K88R, A89M

- Relative Biological Activity (AML 193 proliferation): 38 EC50 (1-133)hIL-3 / EC50 mutant
B38: pMON13382 polypeptide (ligand)
chain: B34 chain with A11I, D30A, S34D, D38E, T100Q, V104W

- Relative Biological Activity (AML 193 proliferation): 19 EC50 (1-133)hIL-3 / EC50 mutant
B39: pMON13420 polypeptide (ligand)
chain: B34 chain with L22S, P44S

- Relative Biological Activity (AML 193 proliferation): 38 EC50 (1-133)hIL-3 / EC50 mutant
B40: pMON13366 polypeptide (ligand)
chain: B34 chain with A11I, D30N

- Relative Biological Activity (AML 193 proliferation): 1 EC50 (1-133)hIL-3 / EC50 mutant
B41: pMON13385 polypeptide (ligand)
chain: B34 chain with A11I, R17V, A20R, L22S, D30A, S34D, D38E

- Relative Biological Activity (AML 193 proliferation): 23 EC50 (1-133)hIL-3 / EC50 mutant
B42: pMON13388 polypeptide (ligand)
chain: B34 chain with A11I, D30A, S34D, P44S

- Relative Biological Activity (AML 193 proliferation): 0.5 EC50 (1-133)hIL-3 / EC50 mutant
B43: pMON13421 polypeptide (ligand)
chain: B34 chain with L22S, V33M, P44S

- Relative Biological Activity (AML 193 proliferation): 36 EC50 (1-133)hIL-3 / EC50 mutant
B44: pMON13367 polypeptide (ligand)
chain: B34 chain with A11I, D30A

- Relative Biological Activity (AML 193 proliferation): 10 EC50 (1-133)hIL-3 / EC50 mutant
B45: pMON13432 polypeptide (ligand)
chain: B34 chain with L22S, V33M

- Relative Biological Activity (AML 193 proliferation): 32 EC50 (1-133)hIL-3 / EC50 mutant
B46: pMON13393 polypeptide (ligand)
chain: B34 chain with L22S, V33M, D38E

- Relative Biological Activity (AML 193 proliferation): 0.9 EC50 (1-133)hIL-3 / EC50 mutant
B47: pMON13379 polypeptide (ligand)
chain: B34 chain with A11I, D30A, T100Q
